Results on one molecule are retold here after patent publication US20230099801A1, “RESTORATION OF T CELL ACTIVITY VIA THE CD39/CD73 AXIS” (INNATE PHARMA, priority 2017, published 2023).

“Also recorded” adds a separate entry of the source.

In assay [1] the target is T1, Human CD39-L3 (NTPDase3, ENTPD3) (Homo sapiens, UniProt O75355).
T1 sequence (O75355 1-529): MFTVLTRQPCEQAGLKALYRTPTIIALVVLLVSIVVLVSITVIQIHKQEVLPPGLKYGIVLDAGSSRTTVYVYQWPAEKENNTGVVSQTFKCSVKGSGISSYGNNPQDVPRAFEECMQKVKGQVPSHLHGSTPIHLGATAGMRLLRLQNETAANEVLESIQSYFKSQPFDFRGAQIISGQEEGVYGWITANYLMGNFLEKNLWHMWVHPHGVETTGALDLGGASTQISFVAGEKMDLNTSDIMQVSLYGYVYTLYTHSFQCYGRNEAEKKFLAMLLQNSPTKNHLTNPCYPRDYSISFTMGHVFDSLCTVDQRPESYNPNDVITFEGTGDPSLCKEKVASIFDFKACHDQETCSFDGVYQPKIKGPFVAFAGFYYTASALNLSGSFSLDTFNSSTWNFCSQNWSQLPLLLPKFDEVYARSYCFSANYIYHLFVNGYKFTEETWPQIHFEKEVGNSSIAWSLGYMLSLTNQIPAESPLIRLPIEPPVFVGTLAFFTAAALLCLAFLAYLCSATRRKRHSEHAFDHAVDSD
In words: ELISA titration on CD39-L3. Format: binding. The procedure: (§1) Wells were washed in TBS Tween 20, and further saturated 2H at RT in TBS Blocking buffer. Dose range concentration of primary antibody was incubated in TBS blocking buffer for 2h at RT. Wells were washed in TBS Tween 20. […] Optical density was measured on Enspire™ at OD=450.
(An ELISA detects its analyte on a solid surface through an enzyme-linked reagent.)

The test system of assay [2] is monocyte-derived DC (moDC). In words: Activation of dendritic cells in presence of ATP. Particulars: ATP at each of 0.125 mM, 0.25 mM or 0.5 mM; I-394 at 10 μg/ml. Format: cell-based, human. The procedure:
While ATP has pro-inflammatory activity, CD39-mediated catabolism of ATP is believed to be able to impair dendritic cell (DC) activation, in turn altering a broader adaptive immune response against tumor antigen. In order to evaluate whether CD39 blockade using anti-CD39 antibodies could overcome CD39-mediated alteration of dendritic cell (DC) activation in the presence of ATP, we incubated monocyte-derived DC (moDC) with anti-CD39 antibodies in the presence of ATP.
Briefly, human monocytes were purified from human healthy blood and differentiated into MoDC in presence of GM-CSF and IL-4 during 6 days. […] LPS (Invivogen, 10 ng/ml) was used as positive control. To assess resulting effect of ATP-mediated DC activation on CD4 T cells activation, ATP-activated DC were washed and then incubated with allogenic CD4 T cells (ratio 1 MoDC/4 T cells) for a mixed lymphocytes reaction (MLR) during 5 days. T cells activation and proliferation were analyzed through CD25 expression and Cell Trace Violet dilution by flow cytometry (FIG. 8).

Assay [3] deals with T2, Human CD39-L1 (NTPDase2, ENTPD2) (Homo sapiens, UniProt Q9Y5L3).
T2 sequence (Q9Y5L3 1-472 isoform Q9Y5L3-2): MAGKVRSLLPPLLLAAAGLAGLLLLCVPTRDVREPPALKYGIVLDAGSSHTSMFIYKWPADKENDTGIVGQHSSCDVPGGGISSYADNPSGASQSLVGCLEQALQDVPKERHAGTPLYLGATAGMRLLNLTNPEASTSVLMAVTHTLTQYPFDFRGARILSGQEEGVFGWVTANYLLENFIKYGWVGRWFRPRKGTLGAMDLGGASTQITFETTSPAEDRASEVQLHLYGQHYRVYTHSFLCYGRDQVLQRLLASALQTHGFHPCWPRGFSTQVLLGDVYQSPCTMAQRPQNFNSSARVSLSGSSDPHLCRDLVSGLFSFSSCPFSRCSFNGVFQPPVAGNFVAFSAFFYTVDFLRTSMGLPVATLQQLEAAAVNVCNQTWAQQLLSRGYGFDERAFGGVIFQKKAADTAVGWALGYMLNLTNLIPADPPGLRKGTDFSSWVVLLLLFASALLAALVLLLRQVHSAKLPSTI
In words: ELISA titration on CD39-L1. The format is binding. The method, then: as §1

Assay [4] has as its system CD4 T cells. Nature of the assay: T cell proliferation assay in presence of added ATP, CD4 T cells. The format is cell-based, human. The method, then:
Peripheral blood from healthy donors was obtained from EFS, and mononuclear cells were isolated on a Ficoll gradient. Lymphocytes were further enriched on a 52% Percoll gradient by collection of the cell pellets and stained with a Cell Trace dye (Thermofisher) following the TDS provided by the manufacturer. […] Inhibition of T cell proliferation was achieved by addition of ATP (200 μM). T cell proliferation and ability of Abs to block immune suppressive effect of AMP were assessed by flow cytometry by quantifying the dye dilution in the proliferating T cell subset.
Percentage of proliferating T cells vs. anti-CD73 Ab concentration is plotted in graphs using GraphPad Prism software.

Assay [5] relates to CHO cells expressing cynomolgus CD39 (CHO-cyCD39). In words: Antibody titration on CHO-cyCD39 cells by flow cytometry. Format: binding, cynomolgus (Macaca fascicularis). The procedure: Cells were incubated with various concentration of unlabeled anti-CD39 antibody from 30 μg/ml to 5×10^−4 μg/ml, for 30 minutes at 4° C. After washes, cells were incubated with Goat anti-mouse H+L labeled secondary antibody for 30 min at 4° C.
(In general: In flow cytometry, cells or beads pass a laser one at a time.)

Assay [6] concerns allogenic CD4 T cells. In words: Mixed lymphocytes reaction (MLR) of ATP-activated MoDC with allogenic CD4 T cells. Format: cell-based, human. Particulars: MoDC activated in presence of ATP. The method, then:
Briefly, human monocytes were purified from human healthy blood and differentiated into MoDC in presence of GM-CSF and IL-4 during 6 days. Then MoDC were activated in presence of ATP (Sigma, 0.25-1 mM) during 24 hours and DC activation were assessed by analyzing CD80, CD83 and HLA-DR expression by flow cytometry. […] LPS (Invivogen, 10 ng/ml) was used as positive control. To assess resulting effect of ATP-mediated DC activation on CD4 T cells activation, ATP-activated DC were washed and then incubated with allogenic CD4 T cells (ratio 1 MoDC/4 T cells) for a mixed lymphocytes reaction (MLR) during 5 days. T cells activation and proliferation were analyzed through CD25 expression and Cell Trace Violet dilution by flow cytometry (FIG. 8).

B1: I-394: anti-CD39 antibody, VH SEQ ID NO: 6, VL SEQ ID NO: 7; heavy/light chains SEQ ID NOS: 52 and 53 (antibody)
heavy: EVQLQQSGPELVKPGASVKMSCKASGYTFTDYNMHWVKQSHGRTLEWIGYIVPLNGGSTFNQKFKGRATLTVNTSSRTAYMELRSLTSEDSAAYYCARGGTRFAYWGQGTLVTVSAASTKGPSVFPLAPSSKSTSGGTAALGCLVKDYFPEPVTVSWNSGALTSGVHTFPAVLQSSGLYSLSSVVTVPSSSLGTQTYICNVNHKPSNTKVDKRVEPKSCDKTHTCPPCPAPEAEGAPSVFLFPPKPKDTLMISRTPEVTCVVVDVSHEDPEVKFNWYVDGVEVHNAKTKPREEQYNSTYRVVSVLTVLHQDWLNGKEYKCKVSNKALPSSIEKTISKAKGQPREPQVYTLPPSREEMTKNQVSLTCLVKGFYPSDIAVEWESNGQPENNYKTTPPVLDSDGSFFLYSKLTVDKSRWQQGNVFSCSVMHEALHNHYTQKSLSLSPGK
light: DIVLTQSPASLAVSLGQRATISCRASESVDNFGVSFMYWFQQKPGQPPNLLIYGASNQGSGVPARFRGSGSGTDFSLNIHPMEADDTAMYFCQQTKEVPYTFGGGTKLEIKRTVAAPSVFIFPPSDEQLKSGTASVVCLLNNFYPREAKVQWKVDNALQSGNSQESVTEQDSKDSTYSLSSTLTLSKADYEKHKVYACEVTHQGLSSPVTKSFNRGEC
modifications: Chimeric homo sapiens mus musculus
For B1, the “binding to CD39-L3 in ELISA” value in assay [1] is reported as “not to any of the human isoforms”. The “moDC activation as assessed by HLA-DR or CD83 expression” value in assay [2] is given as “permitted moDC activation; also recorded: lead to moDC activation”. The “binding to CD39-L1 in ELISA” value in assay [3] was “not to any of the human isoforms”. The “potentiation of anti-CD73 antibodies in restoring CD4 T cell proliferation” value in assay [4] (added ATP 200 μM, anti-CD39 at 0.01, 0.1, 1 μg/ml) is “strongly potentiation”. Also, the results for the “increase in potency of anti-CD73 antibodies” value in assay [4] (anti-CD39 antibody at 0.01 μg/ml) and in assay [4] (anti-CD39 antibody at 0.1 μg/ml) were “approximately 1 log” and “approximately 4 log”, respectively. The “enhancement of CD4 T cell proliferation, alone without anti-CD73” value in assay [4] (concentrations of 0.1 μg/ml and 1 μg/ml, added ATP) is recorded as “remarkable enhancement”. Further, the “binding to cells expressing cynomolgus CD39” value in assay [5] is “bound; also recorded: binds”. Further, the “T cell proliferation and activation (CD25 expression, Cell Trace Violet dilution) in MLR” value in assay [6] is “higher T cell proliferation and activation”.
